Values of other authors in publication PMC4467374.

Legend:
[1] = target: histone H3 K9me3 peptide (Homo sapiens) (UniProt P68431)
[2] = target: histone H3 K4me3/K9me3 peptide (Homo sapiens) (UniProt P68431)

Sequence of UHRF1 TTD (Q96T88 124-285): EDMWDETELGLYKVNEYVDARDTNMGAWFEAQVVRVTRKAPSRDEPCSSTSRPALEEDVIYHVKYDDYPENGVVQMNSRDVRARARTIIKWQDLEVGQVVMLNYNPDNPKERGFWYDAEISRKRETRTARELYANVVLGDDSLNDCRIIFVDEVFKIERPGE

Substance: UHRF1 TTD (from UniProt Q96T88)
- Kd [1]: 20 µM
- Kd [2]: 90 µM
